The text below walks through data of publication PMC6366758, “Structure basis of neutralization by a novel site II/IV antibody against respiratory syncytial virus fusion protein” (PLoS ONE, 2019).

What all share (settings): both partners purified
For test [1], the target named is T1, Antigenic site II synthetic peptide of RSV F (254-278) (Human respiratory syncytial virus A, …).
T1 construct: RSV F antigenic site II, residues 254-278; also called Site II peptide; full-length peptide; source: synthetic peptide (Peptide 2.0)
T1 chain: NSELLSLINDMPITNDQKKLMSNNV
Nature of the test: SPR; Biacore T200; mAb (2 ug/mL, 90 s) captured on protein A or protein G on a CM5 chip; site II peptides injected at 100, 200, 400, 800 nM, 180 s, then 600 s buffer; 1:1 fit; apparent KD = kd/ka. On the technique in general: Surface plasmon resonance follows binding to a sensor surface in real time, without labels.

Another test deals with T2, Pre-fusion F (Human respiratory syncytial virus A, …, UniProt P03420, stabilised).
T2 construct: Fusion (F) glycoprotein F0 of human RSV/A2, residues 26-574, intact TM/CT; mutant furin site I, p27 region deleted, fusion peptide deletion, three stabilizing substitutions; Expressed with a gp64 signal peptide; also called pre-fusion RSV F; pre-fusion trimer; source: Sf9, baculovirus-infected, extracted from cell pellets, purified
Nature of the test: SPR; Biacore T200; mAb (2 ug/mL) captured on protein A or protein G amine-coupled to a CM5 chip; RSV F injected at 3.3, 10, 30, 90 nM, 180 s association, 600 s dissociation; 1:1 fit; apparent KD = kd/ka.

For test [2], the target named is T3, Antigenic site II peptide 264-278 (Human respiratory syncytial virus A (A2 …)).
T3 construct: RSV F antigenic site II, residues 264-278; source: synthetic peptide (Peptide 2.0)
T3 chain: MPITNDQKKLMSNNV
Put plainly: SPR; Biacore T200; mAb (2 ug/mL, 90 s) captured on protein A or protein G on a CM5 chip; site II peptides injected at 100, 200, 400, 800 nM, 180 s, then 600 s buffer; 1:1 fit; apparent KD = kd/ka.

In test [3] the target is T4, Antigenic site II peptide 254-273 (human respiratory syncytial virus).
T4 construct: RSV F antigenic site II, residues 254-273; source: synthetic peptide (Peptide 2.0)
T4 chain: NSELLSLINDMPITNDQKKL
The description is as above.

Test [4] deals with T5, Antigenic site II peptide 260-278 (Human respiratory syncytial virus A (A2 …)).
T5 construct: RSV F antigenic site II, residues 260-278; source: synthetic peptide (Peptide 2.0)
T5 chain: LINDMPITNDQKKLMSNNV
The test is described as above.

Test [5] deals with T6, Antigenic site II peptide 254-268 (Human respiratory syncytial virus A (A2 …)).
T6 construct: RSV F antigenic site II, residues 254-268; source: synthetic peptide (Peptide 2.0)
T6 chain: NSELLSLINDMPITN
The test is described as above.

Test [6] deals with T7, Antigenic site II peptide 259-273 (Human respiratory syncytial virus A (A2 …)).
T7 construct: RSV F antigenic site II, residues 259-273; source: synthetic peptide (Peptide 2.0)
T7 chain: SLINDMPITNDQKKL
Described as above.

The next test addresses T8, Post-fusion F (Human respiratory syncytial virus A, …, stabilised).
T8 construct: Fusion (F) glycoprotein of human RSV/A2 from residue 26, TM/CT domains replaced with a C-terminal 6-histidine tag; Expressed with a gp64 signal peptide; also called post-fusion RSV F; post-fusion trimer; source: Sf9, baculovirus-infected, culture supernatant, purified (IMAC, ion exchange)
Nature of the test: SPR; Biacore T200; mAb (2 ug/mL) captured on protein A or protein G amine-coupled to a CM5 chip; RSV F injected at 3.3, 10, 30, 90 nM, 180 s association, 600 s dissociation; 1:1 fit; apparent KD = kd/ka.

B1: Motavizumab (antibody, V domains shown)
VH: QVTLRESGPALVKPTQTLTLTCTFSGFSLSTAGMSVGWIRQPPGKALEWLADIWWDDKKHYNPSLKDRLTISKDTSKNQVVLKVTNMDPADTATYYCARDMIFNFYFDVWGQGTTVTVSS
VL: DIQMTQSPSTLSASVGDRVTITCSASSRVGYMHWYQQKPGKAPKLLIYDTSKLASGVPSRFSGSGSGTEFTLTISSLQPDDFATYYCFQGSGYPFTFGGGTKVEIK
notes: IgG1; kappa; also called motatvizumab; source: obtained from National Institute of Standards and Technology
Consider B1, for which the Kd in test [1] turned out to be 26.7 nM. In the test with Pre-fusion F, the binding result was “binds”.

B2: R4.C6 monoclonal antibody (antibody, V domains shown)
VH: EVQLQQSGPELVKPGASVKISCKASGYAFSNSWMSWVKQRPGKGLEWIGRLFPADGDITYNGHFKDKAALTADKSSNTAYIQLSSLTSEDSAVYFCARMDNSEVFWGQGTLVTVSA
VL: DILLTQSQKFMSTSVGDRVSITCKASQNVRTGVSWYQRKPGQSPKALIYLASNRHTGVPDRFTGRGSGTDFTLTISEVQSEDLADYFCLQHWTVPYTFGGGTKLEIK
notes: mouse IgG2a; mouse kappa; Only the Fv was modelled in 6CXC; also called mAb R4.C6; source: mouse hybridoma (BALB/c immunized with RSV F NP), serum free medium, purified (protein-G)
B2: the Kd in test [1] turned out to be 12.5 nM; in test [2] it was 110 nM; in test [4], 84.2 nM; in the test with Post-fusion F it was 0.34 nM. The binding result in test [3] is “no binding (tested: 800 nM)”; in test [5], “no binding (tested: 800 nM)”; in test [6], “no binding (tested: 800 nM)”; with Pre-fusion F, “binds”.
